Laboratory results: PMC12501149

Target: biotinylated RBD of TcsL (Paeniclostridium sordellii) (UniProt Q46342)
Assay: SPR

Chain of biotinylated RBD of TcsL (Paeniclostridium sordellii) (Q46342 whole entry): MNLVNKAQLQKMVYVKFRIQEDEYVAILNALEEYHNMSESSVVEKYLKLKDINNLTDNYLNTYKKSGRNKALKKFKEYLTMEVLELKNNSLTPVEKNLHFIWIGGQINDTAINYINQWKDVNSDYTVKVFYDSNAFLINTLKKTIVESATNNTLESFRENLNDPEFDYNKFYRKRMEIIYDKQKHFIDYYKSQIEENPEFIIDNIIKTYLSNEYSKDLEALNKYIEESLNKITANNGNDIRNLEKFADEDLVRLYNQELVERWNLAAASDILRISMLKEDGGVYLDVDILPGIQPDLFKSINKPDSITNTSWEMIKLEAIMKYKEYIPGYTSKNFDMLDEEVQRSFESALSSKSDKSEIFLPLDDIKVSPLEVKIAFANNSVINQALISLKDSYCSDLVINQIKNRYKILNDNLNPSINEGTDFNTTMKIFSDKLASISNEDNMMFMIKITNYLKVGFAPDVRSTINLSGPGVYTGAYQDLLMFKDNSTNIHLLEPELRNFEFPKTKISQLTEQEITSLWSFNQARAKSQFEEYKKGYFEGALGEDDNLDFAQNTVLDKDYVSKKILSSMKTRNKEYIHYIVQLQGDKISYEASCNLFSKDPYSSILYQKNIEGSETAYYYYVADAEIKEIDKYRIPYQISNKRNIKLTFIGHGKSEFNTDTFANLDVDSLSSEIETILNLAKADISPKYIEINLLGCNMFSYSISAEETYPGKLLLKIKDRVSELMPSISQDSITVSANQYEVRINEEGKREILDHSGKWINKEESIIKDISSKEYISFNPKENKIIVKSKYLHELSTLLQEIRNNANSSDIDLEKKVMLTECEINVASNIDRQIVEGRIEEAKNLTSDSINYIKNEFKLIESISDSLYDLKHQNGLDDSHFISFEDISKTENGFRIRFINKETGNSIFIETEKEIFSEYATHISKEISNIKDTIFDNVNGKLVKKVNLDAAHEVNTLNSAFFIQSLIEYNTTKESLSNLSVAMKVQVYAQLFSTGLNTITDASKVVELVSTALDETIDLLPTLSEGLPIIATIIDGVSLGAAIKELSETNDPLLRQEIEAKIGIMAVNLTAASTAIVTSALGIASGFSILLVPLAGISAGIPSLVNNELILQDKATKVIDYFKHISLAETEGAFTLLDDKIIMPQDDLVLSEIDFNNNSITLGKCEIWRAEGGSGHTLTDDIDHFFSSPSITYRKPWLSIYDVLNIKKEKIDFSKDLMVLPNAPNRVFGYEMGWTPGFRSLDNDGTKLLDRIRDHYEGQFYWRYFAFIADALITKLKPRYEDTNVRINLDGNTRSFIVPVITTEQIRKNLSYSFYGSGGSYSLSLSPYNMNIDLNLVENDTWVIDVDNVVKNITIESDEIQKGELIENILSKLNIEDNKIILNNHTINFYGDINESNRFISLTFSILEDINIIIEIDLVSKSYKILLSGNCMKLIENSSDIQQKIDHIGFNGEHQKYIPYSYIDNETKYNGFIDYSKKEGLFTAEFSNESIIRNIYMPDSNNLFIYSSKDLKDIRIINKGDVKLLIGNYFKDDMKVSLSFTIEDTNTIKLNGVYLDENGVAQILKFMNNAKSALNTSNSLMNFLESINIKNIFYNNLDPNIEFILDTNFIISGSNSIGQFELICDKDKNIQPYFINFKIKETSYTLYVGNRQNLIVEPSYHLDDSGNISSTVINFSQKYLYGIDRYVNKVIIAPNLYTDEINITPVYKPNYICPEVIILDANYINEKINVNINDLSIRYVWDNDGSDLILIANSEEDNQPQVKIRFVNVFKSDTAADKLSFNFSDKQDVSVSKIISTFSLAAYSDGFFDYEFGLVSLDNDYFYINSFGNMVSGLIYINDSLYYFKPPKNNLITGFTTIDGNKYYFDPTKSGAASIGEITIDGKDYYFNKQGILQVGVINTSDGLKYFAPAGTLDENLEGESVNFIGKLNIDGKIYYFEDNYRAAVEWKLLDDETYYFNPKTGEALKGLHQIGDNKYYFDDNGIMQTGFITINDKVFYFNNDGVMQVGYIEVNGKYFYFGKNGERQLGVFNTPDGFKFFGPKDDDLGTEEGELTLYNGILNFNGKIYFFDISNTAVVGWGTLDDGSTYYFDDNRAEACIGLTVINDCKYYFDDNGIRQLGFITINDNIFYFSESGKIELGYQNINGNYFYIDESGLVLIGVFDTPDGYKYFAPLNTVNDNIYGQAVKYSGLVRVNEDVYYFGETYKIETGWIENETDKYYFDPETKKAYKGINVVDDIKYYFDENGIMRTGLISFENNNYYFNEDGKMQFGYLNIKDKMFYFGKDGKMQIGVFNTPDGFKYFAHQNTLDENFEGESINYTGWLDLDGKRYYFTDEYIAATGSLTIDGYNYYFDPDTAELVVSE

B1: B10 (designed binder)
chain: NEEIIKEIKQLLKEGKKASEIIELLKKNGYEEIAKDAELAALKSKDMRKAAAETAIKKLE
B1 was tested, and the Kd was 0.0183 nM, the koff was 0.000125 s⁻¹ and the kon was 6.86e+06 M⁻¹ s⁻¹.
